B1: library; numbered along this chain (parent)
chain: MAAAAAAAAEQQSSNGPVKKSMREKAVERRSVNKEHNSNFKAGYIPIDEDRLHKTGLRGRKGNLAICVIILLFILAVINLIITLVIWAVIRIGPNGCDSMEFHESGLLRFKQVSDMGVIHPLYKSTVGGRRNENLVITGNNQPIVFQQGTTKLSVENNKTSITSDIGMQFFDPRTQNILFSTDYETHEFHLPSGVKSLNVQKASTERITSNATSDLNIKVDGRAIVRGNEGVFIMGKTIEFHMGGNMELKAENSIILNGSVMVSTTRLPSSSSGDQLGSGDWVRYKLCMCADGTLFKVQVTSQNMGCQISDNPCGNTH

In this data set the parent is B1. Description: SGCB cell-surface expression functional score (HA stain, bin4 vs bin1, normalised to synonymous) (log10 ratio); higher = more cell-surface SGCB (functional). The method in brief:
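Using lentivirus at MOI <0.1, HA-tagged, YFP-fused human beta-sarcoglycan codon-saturation libraries were put into HEK293 cells with stable alpha-, gamma- and delta-sarcoglycan expression, in duplicate transductions. YFP-positive cells were collected by sorting 72 hours later, grown 5–7 days, stained on ice with Alexa Fluor 647 anti-HA, fixed, sorted into four 5% intensity bins and amplicon-sequenced. The functional score takes the median, across codons and transductions, of the log ratio of highest-bin to lowest-bin variant frequency. Within each section, synonymous variants were scaled to mean 0, SD 0.5.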
With MAAAAAAAAEQQSSNGPVKKSMREKAVERRSVNKEHNSNFKAGYIPIDEDRLHKTGLRGRKGNLAICVIILLFILAVINLIITLVIWAVIRIGPNGCDSMEFHESGLLRFKQVSDMGVIHPLYKSTVGGRRNENLVITGNNQPIVFQQGTTKLSVENNKTSITSDIGMQFFDPRTQNILFSTDYETHEFHLPSGVKSLNVQKASTERITSNATSDLNIKVDGRAIVRGNEGVFIMGKTIEFHMGGNMELKAENSIILNGSVMVSTTRLPSSSSGDQLGSGCWVRYKLCMCADGTLFKVQVTSQNMGCQISDNPCGNTH [D281C], the “SGCB cell-surface expression functional score (log10)” value is -1.63.

For MAAAAAAAAEQQSSNGPVKKSMREKAVERRSVNKEHNSNFKAGYIPIDEDRLHKTGLRGRKGNLAICVIILLFILAVINLIITLVIWAVIRIGPNGCDSMEFHESGLLRFKQVSDMGVIHPLYKSTVGGRRNENLVITGNNQPIVFQQGTTKLSVENNKTSITSDIGMQFFDPRTQNILFSTDYETHEFHLPSGVKSLNVQKASTERITSNATSDLNIKVDGRAIVRGNEGVFIMGKTIEFHMGGNMELKAENSIILNGSVMVSTTRLPSSSSGDQLGSGFWVRYKLCMCADGTLFKVQVTSQNMGCQISDNPCGNTH [D281F], the “SGCB cell-surface expression functional score (log10)” value is 0.45.

Regarding MAAAAAAAAEQQSSNGPVKKSMREKAVERRSVNKEHNSNFKAGYIPIDEDRLHKTGLRGRKGNLAICVIILLFILAVINLIITLVIWAVIRIGPNGCDSMEFHESGLLRFKQVSDMGVIHPLYKSTVGGRRNENLVITGNNQPIVFQQGTTKLSVENNKTSITSDIGMQFFDPRTQNILFSTDYETHEFHLPSGVKSLNVQKASTERITSNATSDLNIKVDGRAIVRGNEGVFIMGKTIEFHMGGNMELKAENSIILNGSVMVSTTRLPSSSSGDQLGSGEWVRYKLCMCADGTLFKVQVTSQNMGCQISDNPCGNTH [D281E], the “SGCB cell-surface expression functional score (log10)” value came out at 0.11.

Consider MAAAAAAAAEQQSSNGPVKKSMREKAVERRSVNKEHNSNFKAGYIPIDEDRLHKTGLRGRKGNLAICVIILLFILAVINLIITLVIWAVIRIGPNGCDSMEFHESGLLRFKQVSDMGVIHPLYKSTVGGRRNENLVITGNNQPIVFQQGTTKLSVENNKTSITSDIGMQFFDPRTQNILFSTDYETHEFHLPSGVKSLNVQKASTERITSNATSDLNIKVDGRAIVRGNEGVFIMGKTIEFHMGGNMELKAENSIILNGSVMVSTTRLPSSSSGDQLGSGHWVRYKLCMCADGTLFKVQVTSQNMGCQISDNPCGNTH [D281H], for which the “SGCB cell-surface expression functional score (log10)” value is -1.11.

With MAAAAAAAAEQQSSNGPVKKSMREKAVERRSVNKEHNSNFKAGYIPIDEDRLHKTGLRGRKGNLAICVIILLFILAVINLIITLVIWAVIRIGPNGCDSMEFHESGLLRFKQVSDMGVIHPLYKSTVGGRRNENLVITGNNQPIVFQQGTTKLSVENNKTSITSDIGMQFFDPRTQNILFSTDYETHEFHLPSGVKSLNVQKASTERITSNATSDLNIKVDGRAIVRGNEGVFIMGKTIEFHMGGNMELKAENSIILNGSVMVSTTRLPSSSSGDQLGSGIWVRYKLCMCADGTLFKVQVTSQNMGCQISDNPCGNTH [D281I], the “SGCB cell-surface expression functional score (log10)” value is -0.27.

For the variant MAAAAAAAAEQQSSNGPVKKSMREKAVERRSVNKEHNSNFKAGYIPIDEDRLHKTGLRGRKGNLAICVIILLFILAVINLIITLVIWAVIRIGPNGCDSMEFHESGLLRFKQVSDMGVIHPLYKSTVGGRRNENLVITGNNQPIVFQQGTTKLSVENNKTSITSDIGMQFFDPRTQNILFSTDYETHEFHLPSGVKSLNVQKASTERITSNATSDLNIKVDGRAIVRGNEGVFIMGKTIEFHMGGNMELKAENSIILNGSVMVSTTRLPSSSSGDQLGSGMWVRYKLCMCADGTLFKVQVTSQNMGCQISDNPCGNTH [D281M], the “SGCB cell-surface expression functional score (log10)” value came out at 0.67.

Turning to MAAAAAAAAEQQSSNGPVKKSMREKAVERRSVNKEHNSNFKAGYIPIDEDRLHKTGLRGRKGNLAICVIILLFILAVINLIITLVIWAVIRIGPNGCDSMEFHESGLLRFKQVSDMGVIHPLYKSTVGGRRNENLVITGNNQPIVFQQGTTKLSVENNKTSITSDIGMQFFDPRTQNILFSTDYETHEFHLPSGVKSLNVQKASTERITSNATSDLNIKVDGRAIVRGNEGVFIMGKTIEFHMGGNMELKAENSIILNGSVMVSTTRLPSSSSGDQLGSGGWVRYKLCMCADGTLFKVQVTSQNMGCQISDNPCGNTH [D281G], the “SGCB cell-surface expression functional score (log10)” value was -0.06.

Regarding MAAAAAAAAEQQSSNGPVKKSMREKAVERRSVNKEHNSNFKAGYIPIDEDRLHKTGLRGRKGNLAICVIILLFILAVINLIITLVIWAVIRIGPNGCDSMEFHESGLLRFKQVSDMGVIHPLYKSTVGGRRNENLVITGNNQPIVFQQGTTKLSVENNKTSITSDIGMQFFDPRTQNILFSTDYETHEFHLPSGVKSLNVQKASTERITSNATSDLNIKVDGRAIVRGNEGVFIMGKTIEFHMGGNMELKAENSIILNGSVMVSTTRLPSSSSGDQLGSGKWVRYKLCMCADGTLFKVQVTSQNMGCQISDNPCGNTH [D281K], the “SGCB cell-surface expression functional score (log10)” value came to 0.25.

For the variant MAAAAAAAAEQQSSNGPVKKSMREKAVERRSVNKEHNSNFKAGYIPIDEDRLHKTGLRGRKGNLAICVIILLFILAVINLIITLVIWAVIRIGPNGCDSMEFHESGLLRFKQVSDMGVIHPLYKSTVGGRRNENLVITGNNQPIVFQQGTTKLSVENNKTSITSDIGMQFFDPRTQNILFSTDYETHEFHLPSGVKSLNVQKASTERITSNATSDLNIKVDGRAIVRGNEGVFIMGKTIEFHMGGNMELKAENSIILNGSVMVSTTRLPSSSSGDQLGSGLWVRYKLCMCADGTLFKVQVTSQNMGCQISDNPCGNTH [D281L], the “SGCB cell-surface expression functional score (log10)” value turned out to be 0.08.

The record behind these values is the supplement of paper PMC10266784.
